This assay has as its target patched (receptor for Shh), on patched-transfected EBNA-293 cells. In words: FACS competition with Shh-Ig on patched-transfected EBNA-293 cells.

patched (receptor for Shh), on patched-transfected EBNA-293 cells, sequence (A3KBI9 whole entry): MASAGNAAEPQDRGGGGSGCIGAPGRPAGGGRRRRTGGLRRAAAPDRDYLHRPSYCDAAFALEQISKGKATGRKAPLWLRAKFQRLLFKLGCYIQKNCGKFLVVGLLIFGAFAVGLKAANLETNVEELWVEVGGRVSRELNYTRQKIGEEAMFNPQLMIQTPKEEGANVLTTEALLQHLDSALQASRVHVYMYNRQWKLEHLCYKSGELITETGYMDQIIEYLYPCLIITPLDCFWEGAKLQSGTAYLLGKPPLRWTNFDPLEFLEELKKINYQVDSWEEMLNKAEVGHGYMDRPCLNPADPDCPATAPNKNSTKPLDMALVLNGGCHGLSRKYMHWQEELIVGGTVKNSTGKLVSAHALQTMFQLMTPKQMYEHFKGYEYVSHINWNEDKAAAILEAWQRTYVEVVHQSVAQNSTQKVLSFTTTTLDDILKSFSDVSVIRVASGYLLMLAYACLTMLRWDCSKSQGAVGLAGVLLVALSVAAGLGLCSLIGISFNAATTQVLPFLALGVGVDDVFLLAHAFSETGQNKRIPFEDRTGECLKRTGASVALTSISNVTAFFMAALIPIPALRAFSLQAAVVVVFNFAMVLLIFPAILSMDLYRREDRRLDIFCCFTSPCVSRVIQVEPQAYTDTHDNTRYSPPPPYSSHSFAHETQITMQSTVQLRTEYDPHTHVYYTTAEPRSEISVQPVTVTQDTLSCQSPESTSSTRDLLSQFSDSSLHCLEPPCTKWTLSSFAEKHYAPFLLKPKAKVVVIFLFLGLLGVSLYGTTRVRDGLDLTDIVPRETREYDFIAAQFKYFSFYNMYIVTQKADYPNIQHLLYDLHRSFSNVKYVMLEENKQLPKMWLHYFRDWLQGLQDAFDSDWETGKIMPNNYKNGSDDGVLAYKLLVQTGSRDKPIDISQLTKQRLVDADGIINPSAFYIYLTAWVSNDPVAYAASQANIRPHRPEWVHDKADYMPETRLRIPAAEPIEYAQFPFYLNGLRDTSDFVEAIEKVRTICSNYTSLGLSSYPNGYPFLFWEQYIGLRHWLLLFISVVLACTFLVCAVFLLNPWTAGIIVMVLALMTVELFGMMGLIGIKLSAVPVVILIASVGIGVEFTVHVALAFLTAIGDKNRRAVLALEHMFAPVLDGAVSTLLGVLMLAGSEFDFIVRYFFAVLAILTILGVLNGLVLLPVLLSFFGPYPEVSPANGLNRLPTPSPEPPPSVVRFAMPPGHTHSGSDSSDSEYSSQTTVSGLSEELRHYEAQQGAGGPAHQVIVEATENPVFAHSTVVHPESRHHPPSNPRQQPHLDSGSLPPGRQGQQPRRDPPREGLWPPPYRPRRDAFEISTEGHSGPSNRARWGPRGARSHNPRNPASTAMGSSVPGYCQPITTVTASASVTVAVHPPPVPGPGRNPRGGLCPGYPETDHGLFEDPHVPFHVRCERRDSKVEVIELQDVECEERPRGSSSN

The term IC50 denotes the concentration needed to halve the response being measured. High values mean lower potency, low ones higher potency. On to “tethered human Sonic hedgehog (N-terminal fragment with a palmitoyl group at the N-terminus and cholesterol at the C-terminus, purified from High Five insect cells) (from UniProt Q14623 28-201) (ligand)”, for which the IC50 is 0.4 µg/mL.

Take “soluble human Sonic hedgehog N-terminal fragment (unmodified, Cys-1 to Gly-174, produced in E. coli) (from UniProt Q14623 28-201) (ligand)”: the IC50 was 0.15 µg/mL.

Source of the values: US6444793.
